Target: tapasin-ERp57 heterodimer, endogenous (human (endogenous in human cell lines)) (UniProt O15533)
Test: co-IP

Chain of UniProt O15533 (O15533 21-448, chain 1 of 2): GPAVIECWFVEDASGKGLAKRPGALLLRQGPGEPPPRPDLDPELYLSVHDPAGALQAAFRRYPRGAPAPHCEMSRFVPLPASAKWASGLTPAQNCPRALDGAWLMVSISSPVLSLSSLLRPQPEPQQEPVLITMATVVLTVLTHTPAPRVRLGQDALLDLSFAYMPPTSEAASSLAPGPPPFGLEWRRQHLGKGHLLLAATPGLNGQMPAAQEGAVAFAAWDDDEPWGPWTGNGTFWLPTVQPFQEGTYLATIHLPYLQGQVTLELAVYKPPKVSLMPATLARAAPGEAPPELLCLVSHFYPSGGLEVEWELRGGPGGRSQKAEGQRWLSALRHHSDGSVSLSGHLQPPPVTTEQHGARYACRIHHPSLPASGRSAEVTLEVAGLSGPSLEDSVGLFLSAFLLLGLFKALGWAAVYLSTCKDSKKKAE
Chain of UniProt O15533 (P30101 25-505, chain 2 of 2, further chain): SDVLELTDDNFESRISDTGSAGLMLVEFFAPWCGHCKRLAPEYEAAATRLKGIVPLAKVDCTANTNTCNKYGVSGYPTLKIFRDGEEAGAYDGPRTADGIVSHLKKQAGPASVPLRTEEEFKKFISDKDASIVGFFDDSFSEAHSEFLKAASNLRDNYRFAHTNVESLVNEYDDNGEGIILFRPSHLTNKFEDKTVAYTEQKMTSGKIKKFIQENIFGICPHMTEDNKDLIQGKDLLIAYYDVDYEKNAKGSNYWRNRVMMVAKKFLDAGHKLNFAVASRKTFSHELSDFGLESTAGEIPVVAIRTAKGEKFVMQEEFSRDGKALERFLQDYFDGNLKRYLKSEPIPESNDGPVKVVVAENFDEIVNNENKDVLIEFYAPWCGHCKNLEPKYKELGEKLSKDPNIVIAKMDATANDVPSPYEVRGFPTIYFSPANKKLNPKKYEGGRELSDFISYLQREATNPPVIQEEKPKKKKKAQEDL

Question: Which percent of endogenous MHC I precipitated by PaSta1 alone (HeLaM.A2-CFP cells) does the source give for “endogenous MHC I of HeLaM cells (HLA-A6802, -B1503 and -C1203) (from UniProt P61769 21-119) (complex)” here?
Answer: The percent of endogenous MHC I precipitated by PaSta1 alone (HeLaM.A2-CFP cells) was 60%.

Question: Which percent of HLA-A2-CFP precipitated by PaSta1 alone (HeLaM.A2-CFP cells) does the source give for “CFP-tagged HLA-A2 (from UniProt P61769 21-119) (complex)” here?
Answer: Its percent of HLA-A2-CFP precipitated by PaSta1 alone (HeLaM.A2-CFP cells) is 20%.

Question: “HLA-C4, endogenous in C1R cells (from UniProt P61769 21-119) (complex)” was tested. Which percent of PLC-associated HLA-C4 precipitated by PaSta1 alone (C1R.A2-His cells) did it give?
Answer: Its percent of PLC-associated HLA-C4 precipitated by PaSta1 alone (C1R.A2-His cells) is 60%.
